The source of these data is patent publication US20210179728A1 (OSE IMMUNOTHERAPEUTICS, published 2021).

The target of test [1] is T1, recombinant hSIRPa (Sino Biologicals, reference 11612-H08H) (human, UniProt P78324 31-370).
T1 construct: also called SIRPa-His; human SIRPa-His; not shown: His tag (histidine tail)
Description: ELISA on immobilized SIRPa-His, peroxidase anti-human IgG, DO 450nm [panel CD80]. The procedure:
(§1) Method: For ELISA assay, recombinant hSIRPa (Sino Biologicals, Beijing, China; reference 11612-H08H) was immobilized on plastic at 0.5 μg/ml in carbonate buffer (pH9.2) and different modified anti-SIRPa antibodies were added to measure binding to SIRPa.

Test [2] concerns the target T2, CTLA4-Fc (human, UniProt P16410 36-161, limits assumed).
T2 construct: not shown: Fc; not specified
In words: ELISA: modified antibody (concentration on the axis) captured on SIRPa-His, then CTLA4-Fc, detected with mouse anti-human CTLA4 [panel CD80]. Background: In an ELISA, binding on a coated surface is turned into a signal by an enzyme label.

Test [3] has as its target T1, recombinant hSIRPa (Sino Biologicals, …). In words: ELISA on immobilized hSIRPa-His, anti-human IgG detection, first experiment; first experiment. On the procedure: (§2) Method: The binding activity of the anti-SIRPa antibodies was assessed by ELISA.
The target in test [4] is T3, recombinant hSIRPb-His (Antibodies-online, reference ABIN3077231) (human, UniProt Q5TFQ8 30-371).
T3 construct: also called SIRPb-His (Blitz); not shown: His tag
T3 sequence (Q5TFQ8 30-371): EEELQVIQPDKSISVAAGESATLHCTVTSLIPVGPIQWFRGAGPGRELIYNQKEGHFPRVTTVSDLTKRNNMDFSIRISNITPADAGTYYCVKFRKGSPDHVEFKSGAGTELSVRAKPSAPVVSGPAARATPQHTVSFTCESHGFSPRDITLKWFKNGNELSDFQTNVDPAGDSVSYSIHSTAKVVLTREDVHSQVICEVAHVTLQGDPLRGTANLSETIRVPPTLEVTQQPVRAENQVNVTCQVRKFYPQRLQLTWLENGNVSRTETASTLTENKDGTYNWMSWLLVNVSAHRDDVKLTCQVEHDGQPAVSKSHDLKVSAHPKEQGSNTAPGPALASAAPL
Description: BLI (Blitz); SIRPb-His on Ni-NTA biosensor, antibody at 20 ug/ml [B, table A]. The procedure:
FIG. 7. (A) Affinity analysis by Blitz of anti-SIRP antibodies on human SIRPb recombinant protein. SIRPb-His recombinant protein was immobilized onto a NINTA biosensor and the indicated antibodies were added at 20 μg/ml. […] (B) Binding analysis of anti-SIRP antibodies (human SIRPb-His coating and anti-human kappa detection).
(§3) Method: This method was performed with a Blitz (Forte Bio; USA; reference C22-2 No 61010-1). Recombinant hSIRPb-His (Antibodies-online; USA; reference ABIN3077231) was immobilized at 10 μg/ml by histidine tail into a Ni-NTA biosensor (Forte Bio; USA; reference 18-0029) for 30 seconds. Then, an anti-SIRPa antibody was associated at 20 μg/mL for 120 seconds. The dissociation of anti-SIRPa antibody was made in kinetics buffer for 120 seconds. Analysis of data was made with the Blitz pro 1.2 software, which calculated association constant (ka) and dissociation constant (kd) and determined the affinity constant KD […].

Test [5] has as its target T4, recombinant hSIRPg-His (Sino Biologicals, reference 11828-H08H) (human, UniProt Q9P1W8 29-360).
T4 construct: also called human SIRPg-His; not shown: His tag
Description: BLI (Blitz); SIRPg-His on Ni-NTA biosensor, antibody at 10 ug/ml or 20 ug/ml (Example 9) [B, table A]. The procedure:
FIG. 8. (A) Affinity analysis by Blitz of anti-SIRP antibodies on human SIRPg recombinant protein. SIRPg-His recombinant protein was immobilized onto a NINTA biosensor and the indicated antibodies were added at 10 μg/ml. […] (B) Binding analysis by ELISA assay of anti-SIRP antibodies on SIRPg (human SIRPg-His coating and anti-human kappa detection).
as §3, with “hSIRPg-His (Sino Biologicals, Beijing, China;” for “hSIRPb-His (Antibodies-online; USA;”, “11828-H08H)” for “ABIN3077231)”

Test [6] concerns the target T1, recombinant hSIRPa (Sino Biologicals, …). Description: competition ELISA on immobilized SIRPa-His; competitor biotinylated CD47-Fc at 6 ug/ml, streptavidin-peroxidase [second experiment table]. The procedure:
Method: For competitive ELISA assay, recombinant hSIRPa (Sino Biologicals, Beijing, China; reference 11612-H08H) was immobilized on plastic at 0.5 μg/ml in carbonate buffer (pH9.2).

For test [7] the target is unchanged. In words: ELISA on immobilized hSIRPa-His, anti-human IgG detection, second experiment. The procedure: as §2
For test [8] the target is unchanged. In words: SPR (Biacore); SIRPa-His immobilized on CM5 chip, antibody injected. On the procedure: FIG. 2. Affinity analysis by Biacore of anti-SIRP antibodies on human SIRPa recombinant protein. SIRPa-His recombinant protein was immobilized onto a CM5 chip at 5 μg/ml (500 RU) and the indicated antibodies were added at different concentration.
Method: Recombinant hSIRPa (Sino Biologicals, Beijing, China; reference 11612-H08H) was immobilized into a CM5 sensor chip (GeHealthcare; France) at 5 μg/ml (500 RU) and antibodies were applied at different concentrations with a flow rate of 40 μl/min. Analysis was performed with a BIAcore 3000 (Biacore, GeHealthcare).
On the technique in general: Surface plasmon resonance follows binding to a sensor surface in real time, without labels.

Test [9] shares this target. Description: ELISA on immobilized hSIRPa-His, anti-human IgG detection, third experiment. The procedure: as §2
The target in test [10] is T5, OX40Fc (human, UniProt P43489 29-216).
T5 construct: not shown: Fc; not specified
T5 sequence (looked up): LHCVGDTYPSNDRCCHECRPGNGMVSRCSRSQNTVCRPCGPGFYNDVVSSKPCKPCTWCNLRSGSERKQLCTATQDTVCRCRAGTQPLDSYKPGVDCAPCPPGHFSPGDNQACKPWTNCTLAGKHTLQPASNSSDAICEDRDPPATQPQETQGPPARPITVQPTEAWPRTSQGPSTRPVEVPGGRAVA
In words: ELISA: modified antibody (concentration on the axis) captured on SIRPa-His, then OX40Fc, detected with mouse anti-human OX40 [panel OX40L]. The text has this:
FIG. 24. Ligand binding assay with the different modified anti-SIRPa antibodies by ELISA.

Test [11] concerns the target T1, recombinant hSIRPa (Sino Biologicals, …). Description: ELISA on immobilized SIRPa-His, peroxidase anti-human IgG, DO 450nm [panel OX40L]. The procedure:
as §1

Residue numbers refer to the chain shown, from its start.

T1 sequence (P78324 31-370 limits assumed): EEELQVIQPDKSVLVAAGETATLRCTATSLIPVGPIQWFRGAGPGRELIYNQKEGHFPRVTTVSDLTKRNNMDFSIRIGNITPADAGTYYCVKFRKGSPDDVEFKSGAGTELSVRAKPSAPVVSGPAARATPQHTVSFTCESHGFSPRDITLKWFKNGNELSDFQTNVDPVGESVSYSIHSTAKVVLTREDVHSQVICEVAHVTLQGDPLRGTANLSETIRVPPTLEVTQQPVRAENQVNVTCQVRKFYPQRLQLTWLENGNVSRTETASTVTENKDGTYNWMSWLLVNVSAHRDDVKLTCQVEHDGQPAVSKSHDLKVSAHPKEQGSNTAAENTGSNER
T4 sequence (Q9P1W8 29-360 limits assumed): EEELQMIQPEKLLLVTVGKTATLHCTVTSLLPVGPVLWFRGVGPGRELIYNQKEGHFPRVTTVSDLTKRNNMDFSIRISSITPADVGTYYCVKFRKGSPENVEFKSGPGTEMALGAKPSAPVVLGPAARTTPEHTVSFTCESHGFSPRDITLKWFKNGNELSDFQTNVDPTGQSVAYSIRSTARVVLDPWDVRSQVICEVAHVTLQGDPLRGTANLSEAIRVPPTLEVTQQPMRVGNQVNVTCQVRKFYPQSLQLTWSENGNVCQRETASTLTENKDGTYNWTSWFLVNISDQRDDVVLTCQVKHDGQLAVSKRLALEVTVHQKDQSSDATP
T2 sequence (P16410 36-161 limits assumed): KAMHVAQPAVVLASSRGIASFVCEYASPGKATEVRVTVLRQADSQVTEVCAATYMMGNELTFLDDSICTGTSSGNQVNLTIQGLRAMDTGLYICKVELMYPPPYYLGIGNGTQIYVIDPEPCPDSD

B1: modified anti-SIRPa HEFLB antibody with ECD of CD80 on the light chain (antibody, human IgG4 S228P, kappa)
heavy: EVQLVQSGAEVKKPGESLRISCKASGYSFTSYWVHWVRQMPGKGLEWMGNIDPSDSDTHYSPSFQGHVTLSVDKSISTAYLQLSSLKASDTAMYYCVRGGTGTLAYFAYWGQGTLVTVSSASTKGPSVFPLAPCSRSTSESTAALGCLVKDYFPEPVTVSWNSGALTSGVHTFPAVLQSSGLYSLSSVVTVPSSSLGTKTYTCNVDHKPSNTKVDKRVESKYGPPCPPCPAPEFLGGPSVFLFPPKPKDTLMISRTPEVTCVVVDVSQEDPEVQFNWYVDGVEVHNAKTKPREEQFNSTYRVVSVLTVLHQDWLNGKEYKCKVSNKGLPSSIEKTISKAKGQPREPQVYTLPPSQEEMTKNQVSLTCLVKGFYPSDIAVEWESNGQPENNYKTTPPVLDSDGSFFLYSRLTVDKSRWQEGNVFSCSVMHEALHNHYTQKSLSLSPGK
light: DVVMTQSPLSLPVTLGQPASISCRSSQSLVHSYGNTYLYWFQQRPGQSPRLLIYRVSNRFSGVPDRFSGSGSGTDFTLKISRVEAEDVGVYYCFQGTHVPYTFGGGTKVEIKRTVAAPSVFIFPPSDEQLKSGTASVVCLLNNFYPREAKVQWKVDNALQSGNSQESVTEQDSKDSTYSLSSTLTLSKADYEKHKVYACEVTHQGLSSPVTKSFNRGECGGGGSGGGGSGGGGSVIHVTKEVKEVATLSCGHNVSVEELAQTRIYWQKEKKMVLTMMSGDMNIWPEYKNRTIFDITNNLSIVILALRPSDEGTYECVVLKYEKDAFKREHLAEVTLSVKADFPTPSISDFEIPTSNIRRIICSTSGGFPEPHLSWLENGEELNAINTTVSQDPETELYAVSSKLDFNMTTNHSFMCLIKYGHLRVNQTFNWNTTKQEHFPDN
notes: as m32, ECD of CD80; also called VH+VLprot (CD80); HEF + LB-CD80
The EC50 (read off the curve) is the concentration at which the effect is half-maximal. Regarding B1, in test [1], the half-maximal effective concentration (EC50 (read off the curve)) was about 8 ng/mL. Further, the binding result in [2] is given as “binds”.

B2: HFLA (antibody, human IgG4 S228P, kappa, V domains shown)
VH: EVQLVQSGAEVKKPGESLRISCKASGYSFTSYWVHWVRQMPGKGLEWMGNIDPSDSDTHYSPSFQGHVTLSVDKSISTAYLQLSSLKASDTAMYYCVRGGTGTMAYFAYWGQGTLVTVSS
VL: DVVMTQSPLSLPVTLGQPASISCRSSQSLVHSYGNTYLYWYQQRPGQSPRLLIYRVSNRFSGVPDRFSGSGSGTDFTLKISRVEAEDVGVYFCFQGTHVPYTFGGGTKVEIKR
notes: humanized 18D5 variant
What is called EC50 is the concentration giving half of the maximal effect. A word on the Kd: it is the concentration at which binding is half-saturated. For orientation: koff means the first-order rate constant of dissociation. The term kon denotes the second-order rate constant of association. For orientation: IC50 means the midpoint of a concentration-inhibition curve. With B2, the figures for the EC50 in [3] and in test [7] were 5.1 ng/mL and 4.61 ng/mL, respectively. The equilibrium dissociation constant (Kd) in test [4] came out at 25.8 nM; in test [5], 47.6 nM; in test [8], 0.217 nM. Moreover, the koff came to 0.00192 s⁻¹ in test [4], 0.0118 s⁻¹ in test [5] and 0.000186 s⁻¹ in test [8]. Also, the figures for the kon in [4], in test [5] and in test [8] were 74500 M⁻¹ s⁻¹, 248000 M⁻¹ s⁻¹ and 857000 M⁻¹ s⁻¹, respectively. For the same molecule, the 50% inhibitory concentration (IC50) in test [6] was 146 ng/mL.

B3: HCLB (antibody, human IgG4 S228P, kappa, V domains shown)
VH: B2 VH with Y106W
VL: B2 VL with Y41F, F92Y
notes: humanized 18D5 variant; also called humanized 18D5 variant HCLB
With B3, the EC50 in [7] was 5.59 ng/mL.

B4: HALA (antibody, human IgG4 S228P, kappa, V domains shown)
VH: B2 VH with S28T, M48I, S61N, P62Q, S63K, Q65K, G66D, Y106W
VL: B2 VL
notes: humanized 18D5 variant; also called humanized 18D5 variant HALA
For B4, the EC50 in [3] was determined as 3.9 ng/mL. In test [4], the Kd was 6.4 nM, the dissociation rate constant (koff) amounted to 0.00085 s⁻¹ and the kon came out at 133000 M⁻¹ s⁻¹. Also, in test [5], the dissociation constant Kd was 46.1 nM, the koff was 0.00709 s⁻¹ and the kon is 154000 M⁻¹ s⁻¹.

B5: HBLB (antibody, human IgG4 S228P, kappa, V domains shown)
VH: B2 VH with S61N, P62Q, S63K, Q65K, G66D, Y106W
VL: B2 VL with Y41F, F92Y
notes: humanized 18D5 variant; also called humanized 18D5 variant HBLB
For B5, the EC50 in [9] turned out to be 2.95 ng/mL.

B6: HEFLA (antibody, human IgG4 S228P, kappa, V domains shown)
VH: B2 VH with M104L
VL: B2 VL
notes: humanized 18D5 variant
Consider B6, for which the EC50 in test [3] came out at 7.1 ng/mL. Further, in test [4], the dissociation constant Kd was 12.4 nM, the dissociation rate constant (koff) turned out to be 0.00122 s⁻¹ and the on-rate constant (kon) turned out to be 98300 M⁻¹ s⁻¹. In [5], the Kd amounted to 52.4 nM, the off-rate (koff) was found to be 0.0114 s⁻¹ and the on-rate (kon) was found to be 217000 M⁻¹ s⁻¹. The IC50 in test [6] was determined as 191 ng/mL. In test [8], the dissociation constant (Kd) came to 0.264 nM, the koff came out at 0.000148 s⁻¹ and the kon came out at 559000 M⁻¹ s⁻¹.

B7: HELB (antibody, human IgG4 S228P, kappa, V domains shown)
VH: B2 VH with M104L, Y106W
VL: B2 VL with Y41F, F92Y
notes: humanized 18D5 variant; also called humanized 18D5 variant HELB
Regarding B7, in test [7], the concentration giving a half-maximal response (EC50) worked out at 4.13 ng/mL.

B8: HBLA (antibody, human IgG4 S228P, kappa, V domains shown)
VH: B2 VH with S61N, P62Q, S63K, Q65K, G66D, Y106W
VL: B2 VL
notes: humanized 18D5 variant; also called humanized 18D5 variant HBLA
Regarding B8, the 50% effective concentration (EC50) in [9] is 2.68 ng/mL.

B9: HALB (antibody, human IgG4 S228P, kappa, V domains shown)
VH: B2 VH with S28T, M48I, S61N, P62Q, S63K, Q65K, G66D, Y106W
VL: B2 VL with Y41F, F92Y
notes: humanized 18D5 variant; also called humanized 18D5 variant HALB
B9: the concentration giving a half-maximal response (EC50) in test [9] stood at 2.53 ng/mL.

B10: modified anti-SIRPa HEFLB antibody with ECD of CD80 on the heavy chain (antibody, human IgG4 S228P, kappa)
heavy: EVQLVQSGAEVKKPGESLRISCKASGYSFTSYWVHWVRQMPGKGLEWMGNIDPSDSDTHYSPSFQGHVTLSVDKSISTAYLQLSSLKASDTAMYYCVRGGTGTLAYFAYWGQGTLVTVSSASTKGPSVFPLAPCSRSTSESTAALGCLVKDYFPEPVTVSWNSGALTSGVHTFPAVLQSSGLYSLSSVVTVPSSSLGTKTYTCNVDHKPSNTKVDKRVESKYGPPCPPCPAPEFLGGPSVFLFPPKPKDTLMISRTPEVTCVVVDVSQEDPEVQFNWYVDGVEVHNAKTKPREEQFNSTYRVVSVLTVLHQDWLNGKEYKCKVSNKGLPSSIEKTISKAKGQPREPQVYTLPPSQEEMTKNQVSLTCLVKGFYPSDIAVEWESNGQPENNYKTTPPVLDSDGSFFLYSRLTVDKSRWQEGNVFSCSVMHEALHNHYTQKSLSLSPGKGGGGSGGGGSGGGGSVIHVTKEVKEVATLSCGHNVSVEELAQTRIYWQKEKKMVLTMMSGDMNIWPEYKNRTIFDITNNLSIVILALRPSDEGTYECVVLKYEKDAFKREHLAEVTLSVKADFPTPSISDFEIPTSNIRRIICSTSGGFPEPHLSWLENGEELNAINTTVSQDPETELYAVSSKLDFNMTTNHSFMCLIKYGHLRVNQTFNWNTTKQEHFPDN
light: DVVMTQSPLSLPVTLGQPASISCRSSQSLVHSYGNTYLYWFQQRPGQSPRLLIYRVSNRFSGVPDRFSGSGSGTDFTLKISRVEAEDVGVYYCFQGTHVPYTFGGGTKVEIKRTVAAPSVFIFPPSDEQLKSGTASVVCLLNNFYPREAKVQWKVDNALQSGNSQESVTEQDSKDSTYSLSSTLTLSKADYEKHKVYACEVTHQGLSSPVTKSFNRGEC
notes: as m25, ECD of CD80; also called VHprot+VL (CD80); VH-CD80
Take B10: in test [1], the “EC50 (read off the curve)” value is about 8 ng/mL. In addition, the binding result in test [2] was “binds”.

B11: modified anti-SIRPa HEFLB antibody with ECD of OX40L on the heavy chain (antibody, human IgG4 S228P, kappa)
heavy: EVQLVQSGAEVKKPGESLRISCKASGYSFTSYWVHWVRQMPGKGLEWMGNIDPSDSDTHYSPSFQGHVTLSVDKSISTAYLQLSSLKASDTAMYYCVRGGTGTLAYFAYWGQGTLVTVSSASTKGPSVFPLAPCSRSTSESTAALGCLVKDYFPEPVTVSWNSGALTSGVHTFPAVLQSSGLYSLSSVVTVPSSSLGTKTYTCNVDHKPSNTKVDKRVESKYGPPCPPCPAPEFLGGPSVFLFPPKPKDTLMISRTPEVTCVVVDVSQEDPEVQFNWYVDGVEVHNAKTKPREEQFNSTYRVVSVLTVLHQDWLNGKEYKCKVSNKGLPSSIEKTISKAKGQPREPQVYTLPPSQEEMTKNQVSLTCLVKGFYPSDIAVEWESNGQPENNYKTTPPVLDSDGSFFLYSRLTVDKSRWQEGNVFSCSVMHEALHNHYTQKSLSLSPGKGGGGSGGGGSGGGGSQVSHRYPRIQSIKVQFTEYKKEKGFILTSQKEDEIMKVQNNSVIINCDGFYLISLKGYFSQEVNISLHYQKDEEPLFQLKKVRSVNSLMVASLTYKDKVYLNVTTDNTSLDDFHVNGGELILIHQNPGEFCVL
light: B10 light
notes: as m25, ECD of OX40L; also called VHprot+VL (OX40L); HEF-OX40L + LB
For the molecule B11, the binding result in test [10] and in test [11] was “binds” in each case.
